Measurements reported in article PMC8818652, “Msi2‐mediated MiR7a‐1 processing repression promotes myogenesis”.

Assays:
[1] = biological target: HuR (ELAV-like protein 1);Msi2 (Musashi 2) (mouse?;mouse?, UniProt P70372;Q920Q6 1-326;1-346, |); assay: EMSA; HuR and Msi2 together, strong cooperative binding; 100 mM Tris-HCl pH 7.5, 7.5 mM KCl, 25 mM MgCl2, 375 mM NaCl, 12.5% glycerol, 5 mM DTT, 30 C 30 min (as printed, possibly 5x buffer); 6% native PAGE at 4 C; conditions: protein: recombinant;recombinant; tags:
[2] = biological target: HuR (ELAV-like protein 1) (UniProt P70372 1-326); assay: EMSA; HuR alone; 100 mM Tris-HCl pH 7.5, 7.5 mM KCl, 25 mM MgCl2, 375 mM NaCl, 12.5% glycerol, 5 mM DTT, 30 C 30 min (as printed, possibly 5x buffer); 6% native PAGE at 4 C; conditions: protein: recombinant
HuR (ELAV-like protein 1), sequence (P70372 whole entry): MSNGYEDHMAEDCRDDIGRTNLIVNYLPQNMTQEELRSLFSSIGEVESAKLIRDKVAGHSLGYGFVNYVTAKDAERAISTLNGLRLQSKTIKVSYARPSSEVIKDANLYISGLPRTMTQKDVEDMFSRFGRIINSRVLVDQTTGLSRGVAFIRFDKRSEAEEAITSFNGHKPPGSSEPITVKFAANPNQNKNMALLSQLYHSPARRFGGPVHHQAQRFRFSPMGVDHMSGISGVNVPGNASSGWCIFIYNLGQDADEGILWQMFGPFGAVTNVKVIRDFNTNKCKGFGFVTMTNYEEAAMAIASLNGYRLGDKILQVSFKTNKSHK

HuR (ELAV-like protein 1);Msi2 (Musashi 2), sequence (P70372 whole entry, chain 1 of 2): as the sequence (P70372 whole entry) above
HuR (ELAV-like protein 1);Msi2 (Musashi 2), sequence (Q920Q6 whole entry, chain 2 of 2): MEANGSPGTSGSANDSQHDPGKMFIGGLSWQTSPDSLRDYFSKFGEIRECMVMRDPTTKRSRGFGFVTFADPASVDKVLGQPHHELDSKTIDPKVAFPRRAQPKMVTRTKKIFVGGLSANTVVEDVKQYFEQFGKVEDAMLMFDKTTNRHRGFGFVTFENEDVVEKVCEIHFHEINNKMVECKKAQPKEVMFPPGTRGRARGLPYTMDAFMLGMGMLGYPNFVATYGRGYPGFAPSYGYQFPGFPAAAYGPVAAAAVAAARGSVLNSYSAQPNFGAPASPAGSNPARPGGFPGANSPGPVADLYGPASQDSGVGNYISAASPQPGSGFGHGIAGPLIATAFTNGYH

Binder: UAAUUCGUACUUUUUUUUUCUUUUCUUUUAUAGUGUGAA (ssRNA) [WT Flanking probe]
- binding result [1]: binds
- binding result [2]: binds
